From patent publication CN106084048A (UNIV SUN YAT SEN, dated 2016) come the findings set out here.

Test [1] concerns the target CD3 on Jurkat cells (UniProt P07766). As to the kind of experiment: flow cytometry, culture supernatant on Jurkat cells (negative control). In general terms: A flow cytometer gives signals particle by particle.
For test [2], the target named is T1, CD3-His蛋白(MP-5) (UniProt P07766 23-126).
T1 construct: Immunogen and panning antigen; The Octet method speaks only of 'CD3蛋白' in solution at 100 nM; also called CD3蛋白; not shown: His tag
T1 sequence (P07766 23-126): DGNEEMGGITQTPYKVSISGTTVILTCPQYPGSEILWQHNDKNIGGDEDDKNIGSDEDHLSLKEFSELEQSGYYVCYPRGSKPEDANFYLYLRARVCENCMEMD
As to the kind of experiment: BLI (Octet RED96), sdAb-SASA from expression medium captured on BSA-coated biosensor, 100 nM CD3 in solution, 1:1 Langmuir fit, 30°C. For orientation: BLI is a label-free optical method that tracks binding on a fibre tip over time.

In test [3] the target is CD3 on Jurkat cells (UniProt P07766). As to the kind of experiment: flow cytometry, culture supernatant on Jurkat cells.

NC-sdAb(相同形式的非相关性sdAb) (VHH) returned an MFI in test [1] of 115 MFI.

B1: 抗CD3单域抗体 C58 (VHH)
VHH: QVQLQESGGGLVQPGGSLRLSCAASGFTLDYYAIGWFRQAPGKEREGVSCISSGDGTTYYADSVKGRFTISRDNAKNTVYLQMNSLKPEDTAVYYCAAARTRKVISIATMTLDPKVFASWGQGTQVTVSS
notes: Llama sdAb from a phage library; Tested as unpurified sdAb-SASA protein in E. coli expression medium / culture supernatant (FASEBA format); 3 in its text; also called sdAb C58; not shown: SASA fusion partner of the pFASEBA vector (sdAb-SASA protein in the expression medium)
One may read the koff as the rate constant with which the complex falls apart. A higher koff goes with fast dissociation. Molecule B1 returned a koff in test [2] of 3.91e-05 s⁻¹. The same molecule registered an MFI in test [3] of 245 MFI.

B2: 抗CD3单域抗体 C57 (VHH)
VHH: QVQLQESGGGLVQAGDSLRLSCAASGRTFSSYVMGWFRQAPGKEREFVAAIRWSGGSTYYADSVKGRFTISRDNAKNTMYLQMNSLKPEDTAVYYCAAAQKINTDVTGAYWGQGTQVTVSS
notes: Llama sdAb from a phage library; Tested as unpurified sdAb-SASA protein in E. coli expression medium / culture supernatant (FASEBA format); 1 in its text; also called sdAb C57; not shown: SASA fusion partner of the pFASEBA vector (sdAb-SASA protein in the expression medium)
Turning to B2, the koff in test [2] is 4.6e-05 s⁻¹. In test [3], this molecule gave an MFI of 213 MFI.
